Results as given in publication PMC7823470, “Arabidopsis Plant Natriuretic Peptide Is a Novel Interactor of Rubisco Activase” (Life, 2020).

Experiments:
[1] = system: plant leaves; parameters: method as in 2 sources, ref 13, 20 = [13]; PMID 21550130; doi:10.1016/j.jplph.2011.03.011; 13. Ruzvidzo O. Donaldson L. Valentine A. Gehring C. The Arabidopsis thaliana natriuretic peptide AtPNP-A is a systemic regulator of leaf dark respiration and signals via the phloem J. Plant Physiol. || [20]; PMID 19015524; doi:10.1073/pnas.0810107105; 20. Gottig N. Garavaglia B.S. Daurelio L. Valentine A.J. Gehring C. Orellano E.G. Ottado J. Xanthomonas axonopodis pv. citri uses a plant natriuretic peptide-like protein to modify host homeostasis Pr ||| ref 20 = [20]; PMID 19015524; doi:10.1073/pnas.0810107105; 20. Gottig N. Garavaglia B.S. Daurelio L. Valentine A.J. Gehring C. Orellano E.G. Ottado J. Xanthomonas axonopodis pv. citri uses a plant natriuretic peptide-like protein to modify host homeostasis Pr; settings: cited from earlier work
Text: In the host–pathogens ‘arms race’, bacteria may acquire ‘eukaryotic-like’ genes from their hosts through horizontal gene transfer. […] Tobacco (Nicotiana tabacum) RCA gene is involved in resistance to herbivory, and its down-regulation impaired JA signaling and led to reduced defense against both generalist (Spodoptera littoralis) and specialist (Manduca sexta) herbivore elicitation ...

[2] = system: Rubisco activase (RCA); test: Affinity isolation with LC-MS/MS; assay type: binding, Arabidopsis thaliana; settings: pAtPNP-A bait vs pScr control
Description: Isolation of putative interactors of AtPNP-A was performed as described previously with minor modifications. For each sample, 5 g of plant material was used, no cross-linker was applied, the supernatant was incubated either with the N-terminally biotinylated pAtPNP-A or pScr (negative control) for 15 min. The protein extract mixture was incubated with Dynabeads M-280 (Life Technologies, Singapore) for 30 min. Eluted proteins were separated by SDS-PAGE (10% gels run for 15 min at 100V) and bands visualized with Coomassie Brilliant Blue (Figure S1). Bands were excised for trypsin in-gel digestion of proteins. MS analyses were performed on linear trap quadrupole (LTQ) Orbitrap Velos mass spectrometer (Thermo Scientific, Waltham, MA, USA) under conditions previously described. Scaffold version 4.11.1 (Proteome Software Inc.) was used to validate MS/MS based peptide and protein identification. […] Relative quantification of total spectrum counts of proteins identified with a confidence level of at least 99% at FDR < 0.1 in each sample containing pAtPNP-A or pScr (negative control) from three independent experiments was performed using Scaffold. […] The quantification file as well as the raw data are available via ProteomeXchange with identifier PXD023216, and the MS information is integrated in Supplementary Tables S1–S6.

[3] = system: RCA; settings: Yeast Two-Hybrid, AtPNP-A lacking the signal peptide; cited from earlier work
[4] = system: Pst DC3000; parameters: method as in PMID 32409317; settings: exogenous application; cited from earlier work
Text: Tobacco (Nicotiana tabacum) RCA gene is involved in resistance to herbivory, and its down-regulation impaired JA signaling and led to reduced defense against both generalist (Spodoptera littoralis) and specialist (Manduca sexta) herbivore elicitation ...

B1: AtPNP-A: Arabidopsis thaliana PNP, termed AtPNP-A (At2g18660; Q9ZV52) (protein)
chain: AQGKAVYYDPPYTRSACYGTQRETLVVGVKNNLWQNGRACGRRYRVRCIGATYNFDRACTGRTVDVKVVDFCREPCNGDLNLSRDAFRVIANTDAGNIRVVYTPI
modifications: left off: His6, N-terminal, kept
- Leaf photosynthetic rates and apparent photon yield [1]: modulate leaf photosynthetic rates and apparent photon yield
- Leaf dark respiration rates ([1]; treatment of plant leaves): triggers increase in leaf dark respiration rates
- Leaf photosynthetic rates and efficiency of light utilization ([1]; treatment of plant leaves): regulates leaf photosynthetic rates and efficiency of light utilization during photosynthetic CO2 fixation
- Leaf transpiration rates ([1]; treatment of plant leaves): higher leaf transpiration rates
- Starch in guard cell chloroplasts ([1]; treatment of plant leaves): induces starch reduction in guard cell chloroplasts
- Stomatal conductance and stomatal opening ([1]; treatment of plant leaves): increases stomatal conductance and stomatal opening
- Identification of RCA as interactor [2]: identified with high confidence
- Interaction with RCA [3]: strong interactor
- Susceptibility to Pst DC3000 [4]: enhanced susceptibility to Pst DC3000
